{
  "source": "the DeepSol protein solubility set",
  "data": [
    {"experiment": "soluble on expression in E. coli; label from the status in PepcDB or PDB records", "values": [
      {"sequence": "MCGISGEFRFDNQAADLAAVERITHHLAPRGPDAWGFHAQGPIALGHRRLKIMDLAEASGQPMIDPDLGLAMVFNGAIYNYPELRGELESLGYRFFSGGDTEVLLKGYHAWGADLLPRLNGMFAFAVWERDRQRLFLARDRLGIKPLYYSLDRSRLRFASSLPALLKGGDIASDLDPQALNFYLNFHAVVPAPHTLLEGVKKLPPATWMSVDLDGSCEQRTWWTLDYGPRPDERELTLDDWQERVLDGLREAVAIRQRAAREVGVLLSGGVDSSLLVGLLHEAGVDNLLTFSIGFEDAGGERGDEFQYSDLIAERYHTRHHRLRIGEHEVIEQLPAAFRAMSEPMVSHDCIAFYLLAREVSKHCKVVQSGQGADELFAGYHWYPKVDGADDAFAAYRAAFFDRDHEEYLATVGERFRVEDVAGRFVRDHFASPGAEAAVDKALRLDSTIMLVDDPVKRVDNMTMAWGLEARVPFLDYRLAELSARIPARFKLGDGGKQVLKGAARKVIPSEVIDRPKGYFPVPGLKHLQGRTREWVRELLLDPSQDRGLFQPAIFDRLLSDPDGDLTPLRG", "soluble on expression in E. coli": "not soluble"},
      {"sequence": "MCGIVGYIGYDNAKELLLKGLEKLEYRGYDSAGIAVVNDDNTTVFKEKGRIAELRKVADSSDFDGPVGIGHTRWATHGVPNHENSHPHQSSNGRFTLVHNGVIENYEELKGEYLQGVSFISETDTEVIVQLVEYFSNQGLSTEEAFTKVVSLLHGSYALGLLDAEDKDTIYVAKNKSPLLLGVGEGFNVIASDALAMLQVTSEYKEIHDHEIVIVKKDEVIIKDADGNVVERDSYIAEIDASDAEKGVYAHYMLKEIHEQPAVMRRIIQEYQDAEGNLKIDQDIINDVKEADRIYVIAAGTSYHAGLVGKEFLEKWAGVPTEVHVASEFVYNMPLLSEKPLFVYISQSGETADSRAVLVETNKLGHKSLTITNVAGSTLSREADHTLLLHAGPEIAVASTKAYTAQIAVLSILSQIVAKEHGREADIDLLRELAKVTTAIEAIVDDAPIMEQIATDFLETTRNAFFIGRTIDYNVSLEGALKLKEISYIQAEGFAGGELKHGTIALIEEGTPVVGLATQEKVNLSIRGNVKEVVARGAHPCIISMEGLEKEGDTYVIPHVHELLTPLVSVVALQLISYYAALHRDLDVDKPRNLAKSVTVE", "soluble on expression in E. coli": "not soluble"},
      {"sequence": "MCIVALAWQVFDQIPLCLLSNRDEFYARPTTQLHLWENTPIIAGRDLQSGGTWMGITASGRWAVVTNFRDGHDKKIYDTSRGTLVEDFLLSDLAPIRFAKQLEQRQQHYAGFNLFMGDQSQAVYMSNRGEAPQVLAKGVYVVSNGLMSEHWEKTAHLRKRFTQEFVPMLQAEIAEHDLEYTAWDILEDERKVIPELLPSTGIHPDMEELLSSTFIQSPVYGTRCSNFLRLMKRRWIWAEKTQWGDHAGEMMRMDIQIQLEHHHHHH", "soluble on expression in E. coli": "not soluble"},
      {"sequence": "MCLAIPGKVVEIKGNVGIVDFGGIRREVRLDLLSDVKVGDYVIVHTGFAIEKLDERRAREILEAWEEVFSVIGGE", "soluble on expression in E. coli": "not soluble"},
      {"sequence": "MCLIVFAWRPGHALPLIVAANRDEFYARPTQPLAAWEDAPGVHAGRDLEAGGTWLGVGPQGRFAALTNIRDPGQAQGPRSRGELVAAFLQGELGVGAYLDQVASRSGQYSGFNLLVGDGQRLGYLHAREATPRLLKAGVYGLSNAGLDTPWPKLVKARDGLENLLDTPEPHRLLALLADNEPAADGDLPETGVGLATEKLLSSVFIASQNYGTRASTVLIVDDQGQRRLVERSFGPFGGHLGEIELLVLEHHHHHH", "soluble on expression in E. coli": "soluble"},
      {"sequence": "MCLVNEFVSNSNMKPALNVSGDEKELILQLRRYLEEKLTYLLDQNGTVSIGVSGGSMPRVFSKAILSLPQEQLNWKRIRIFMVDERNVDLDSEESNQGEYLRLFPNELRDVFVPMQIFKDPCLTAQHYEISLRKYLLPEQLNNTARFDILFLGVGPDGHTASIFPGKERLEKITELNWVSVITDSPKPPPSRITLTLQTLQHAKNVAFIICGKQKAEIVRGICDRDQKYPAAQARPFNDKLTLFLDEDAATGVPDRDSSDSDSPPPFDG", "soluble on expression in E. coli": "not soluble"},
      {"sequence": "MCMDLESLLAIKHFRADQAQLALKRQQQAAVAAAAQRQAQGRLDDCRLWAGQLENRLYAELCRRIVKTRDIDEVLQRVGHARDRQASLALQLDDAVRRHEHEIQLLAQQREQHRECFQAQQRIAELVRLQQVEAAALRESLEDREIQEAIELSARGRDDASRAGDGLARLLEHHHHHH", "soluble on expression in E. coli": "not soluble"},
      {"sequence": "MCMYEADVRINGTLIWYYFICKREVWLISHGITADQEDENIEIGRFIHENAYSREKKEIDFDNFKVDVADSIDGKIIVQEVKKSSKFKKSARMQLLFYIYEIKKSGIDARGILLFPEERKREEVVLDEASQKELDSVIKDIFKIVNLEKPPIPEKCKYCRNCAYSELCWA", "soluble on expression in E. coli": "not soluble"},
      {"sequence": "MCSLSAIMLLPTKLKPAYSDKRSNSSSSSSLFFNNRRSKKKNQSIVPVARLFGPAIFESSKLKVLFLGVDEKKHPSTLPRTYTLTHSDITAKLTLAISQSINNSQLQGWANRLYRDEVVAEWKKVKGKMSLHVHCHISGGHFLLDLFAKFRYFIFCKELPVVLKAFVHGDGNLLNNYPELQEALVWVYFHSNVNEFNKVECWGPLWEAVSPDGHKTETLPEARCADECSCCFPTVSSIPWSHSLSNEGVNGYSGTQTEGIATPNPEKL", "soluble on expression in E. coli": "soluble"},
      {"sequence": "MCTFCSIINRELEGYFVYEDEKFAAILDKYPVSLGHTLVIPKKHFENYLEADEDTLAELAKVVKLVSLGIKDAVKADGLRLLTNIGRSAGQVIFHLHVHIIPTWEGDYPDIFKSFKPRKEQEKEYYELLQKIIRESIENLKRKIGDYKWG", "soluble on expression in E. coli": "soluble"},
      {"sequence": "MCVHTRKPDGLHPKPVSHCPVIDTGQSEWRSFTFTTICMGFRPRQAYRQPSPIANETENTMSNSNIQQEAQDIHDQLPESVDASPEDIEERLTTLVDDYRVPLDEAQRSVVSTYLSDSDVDRDDVSSENENQQVDLEEITEAEQWVDITAKVADLWEPRSDSIAQVGLLGDETGTIKFTKWAKSDLEALTEGQVYRLGNVVTDEYQGQYSVKLNRTTTIEALDQDIEVGDDTTDAEGALVDIQSGSGLIKRCPEDDCTRVLQNGRCSEHGEGEGEFDLRIKGVIDNGDTVQEVIFDKEATEQVADITLAQAQEMAMDALDTSVVADEIREVTLGRYYRVQGPELGRYLLVNEFEQLAEMHDPEQLLITARSI", "soluble on expression in E. coli": "soluble"},
      {"sequence": "MCVNFIPPSRGQLREWLGCDPGDGQWPDEAWQDYPAPILTRDGLRFASYGFIPKRHQPAGVRLSTMNARVETIGQLRSYRDAWRNCQLCLVPMQAFYEPCYESGRAVRTKISMADGAPFAVAGLWREWREADGSISLAFTQITIHADGHAVMGRMHRPGDEKRSLAIIPAALYQAWLHCRNPEQARAFLQLFSAEAMRAEGEIADPPRQGSLFDLEHHHHHH", "soluble on expression in E. coli": "not soluble"},
      {"sequence": "MCWYGDPGATYRYSGVSHQPSPWHEVLADLRTRIEAFSGHVFNAVLCNRYRSGRDSMGWHADDEPELGERPFIASLSLGAERLFRIRHRGTGRTLDVPLRDGDLLLMGGELQSHWRHCVPRTARPCGERINLTFRRVVPRSLEHHHHHH", "soluble on expression in E. coli": "not soluble"},
      {"sequence": "MDAEPKRKFGVVVVGVGRAGSVRLRDLKDPRSAAFLNLIGFVSRRELGSLDEVRQISLEDALRSQEIDVAYICSESSSHEDYIRQFLQAGKHVLVEYPMTLSFAAAQELWELAAQKGRVLHEEHVELLMEEFEFLRREVLGKELLKGSLRFTASPLEEERFGFPAFSGISRLTWLVSLFGELSLISATLEERKEDQYMKMTVQLETQNKGLLSWIEEKGPGLKRNRYVNFQFTSGSLEEVPSVGVNKNIFLKDQDIFVQKLLDQVSAEDLAAEKKRIMHCLGLASDIQKLCHQKK", "soluble on expression in E. coli": "soluble"},
      {"sequence": "MDALIMAGGKGTRLKENVEKPILNICEKPMIDYVIDSLLNSKIEKIYVAVSIHTPKTKEYLEKKYRLDRNYNPKIDIICTSGTNYVDDLNECMEFFKEPFLILSSDIPTIKPKVINSIIQDYLFVNNSCNRIESFCVVTKDDDYVGTPSINMGGYIPLGINILTPKHGEQTEILHVIKDIIVNVNTLSDKKLVETLINKVVELEHHHHHH", "soluble on expression in E. coli": "soluble"},
      {"sequence": "MDALQAYGGSDSEHSDDDASMDQVAKGKSSTLLERAIVTAPDVESKSAIRQVAIVDPKTKEIKSNPKFDQLFKPESGPVNHFKSEQQRSQKNTLTGFVEPAHLNEFHFNRQIRSFDTLGYAQNPTAESGTTHFVGDVKKAEAEKGVSLFESKKTGGEKRKRVRNDDSADIDGYTGPWSRFIDEKTVAKPTPELQKQMDEIVKKRQEKSRRFKKEKEDSEQMAEESSTLHLKEAEDYQGRSFLVPPSFTGVNLREDYVPERCFVPKKLVHTYRGHNKGVNFLQWFPKSAHLFLSCSMDTKIKLWEVYDRQRVVRTYAGHKLPVREVAFNNEGTEFLSASFDRYVKLWDTETGQVKQRFHTGHVPYCLKYHPDDDKNHMFLVGMQNKKIIQWDSRSGEIVQEYDRHLQAVNSITFFDKNRRFASTSDDKSVRIWEWEIPVDTKLIQNVGLHAIPTMTKSPNDKWVVGQCMDNRIVLFQLVDDKLRFSKKKAFRGHNAAGYACNIDFSPDQSFLISGDADGKLFIWDWRTHKIVGKWKAHDSTCIAALWHPHEKSRMITAGWDGLIKMWN", "soluble on expression in E. coli": "soluble"},
      {"sequence": "MDALTDSGSDPLLSAALGSPIHHAILSMDDEVDGNCDDVDDISPESHHDNHFIDFTDDLVVQTERNLSKKGRTSNRNARQGYDNYATLTNLQPLPPISTVTSKSTKVQRPSPSPNFYFPTSSNSSYDMKYEEEEDDCEGITHSSSSPSDFSNHGTDLNHPFSASSFDSFDVTTVSTTATSTIMNSTDKFIARIQEADSTTKSPKGTSPAALMHGHCEEDFDDGEELNTKELALQIAAELKRYSIPQAIFAERVLCRSQGTLSDLLRNPKPWSKLKSGRETFRRMAKWLEEPEFQRMSALRLAACKRKEEHTTPNSPQMVVPKKTRLVFSDIQRRTLQAIFRETKRPSREMQITISQQLNLDPTTVANFFMNARRRGHDLKQETSESEERSEEPSIHFEHSASSSSASSSSSSSMQLDNYICDINTINILEEPSPEPREIKYSMQLLENELDFPANILEP", "soluble on expression in E. coli": "not soluble"},
      {"sequence": "MDALVSTKANSIAYQRSTVIIPAYNEEKRLMPVLYELCEYIRSNSLEWKVMVSIDGDDGTESNVKIMMQEYSFLSYSKGKGRGGKGAAIKRAITSATGEFVILMDADGSVPLKEIVKALDLTNYYDLIIFDRYSNRGNRIPFIRRFPSRGFNKLVRIFLGLKINDTQCGYKIIKREYAQRAFNKITISNAFFDVALLYYLKKERAKYIEIPVEYNYDRNSKFHVVELVLGEGISLIAFRIRNSRFYKYVPEKLISLYYRKFRWILEHHHHHH", "soluble on expression in E. coli": "soluble"},
      {"sequence": "MDASTHFRDRGALITGLMSGALDAVDAVARTRPAVEVLGLLVPVDGLMEDYLNGRAREGLGVTRSEFEPWRRQLLAVVAALLERWVGDDADLWRALAMRAGSYCGTVVELVDSVVRPEHADPASWAGRAPRWPRGVDASAVLLALAPPGIAEAFLDDCVTNAAAAGVLTRMLDRGPLHPLFVEYALGSLGTEAMRASLNRNPAYAIAQLRDQVLRERTDIAVLEHAYFAPPTDRALRVGLVRLAEAVGGFRPRFISRLESHAEDIASLEPLLVCSDPQLVHWVLRRVNATLKVPAMRWAAYATLALTAGPEPVWALEQERVGTLSRMAEPVRASMSTGSVAPILAAAGAAPVTIGPAGSAIELGAPLIEPWPYTELICEHVEGDGHRADPVDKPAADRPSSTRLGRSAEV", "soluble on expression in E. coli": "not soluble"},
      {"sequence": "MDDHGRTPSTNQPILYVLDTNVLIHDPNALLNFEEHHVAIPMTVLEELDKLKAGKHSVAAECRQAIRLIDKTLGEASPEEVEKGVPIDRGTGVFKGFLSILMSKREEPNSLLPEHLNDNIIINQLIDLHARNKDLSVVLVTKDINMRLKARACGIDAEDYSTDQLVDDVSLLSRGYHDMTGSFWDRVNKVDTRQERGRTWHRVQLNEMLPAVHINEFIVDEQGFVGWIKGVKNDELLILDMHQEPLLHQEAWGLKPRDIYQGLALFALLDPDIHLVNLSGPAGSGKTILALAAAIEQTMVTKRYRRIIATRSVQGLDQEIGFLPGTEAEKMEPWLGAITDNLEALHMDDENTHGSVDYILSKVPLQFKSLNYIRGRSFQQSLILIDECQNLTPHQMKTIITRAGAGSKVVCLGNLAQIDTPYLSATSSGLTYLTERFKDFPNGVHLTLQGVPRSILAEYAESHL", "soluble on expression in E. coli": "soluble"}
    ]}
  ]
}
